Tested on: Arabidopsis
Assay: Overexpression of HAB1^!-2 (35S::GFP-HAB1^!-2) in Arabidopsis, T1 plant phenotype
Assay type: in vivo
Excerpt: To investigate the effects of overexpressing HAB1^!-2 in Arabidopsis, we used Agrobacterium mediated transformation to generate 35S::GFP-HAB1^!-2 transgenic plants. HAB1^!-2 was cloned from pACT-HAB1^!-2 into pEGAD, a binary vector suitable for plant transformation, generating a 35S-driven GFP-HAB1^!-2 fusion protein. The clone was transformed into Agrobacterium and the floral dip method used to transform Arabidopsis. After selection of T0 seed on soil containing glufosinate, several T1 seedlings were identified. […] As an alternate strategy, we eliminated HAB1's catalytic activity by introducing a mutation in a conserved metal-ion binding residue (D204), which is homologous to D131A mutation in ABI1, previously shown to eliminate phosphatase activity without disrupting wild type receptor-ABI1 interactions (Liang et al., 2011). We used QuickChange mutagenesis to introduce the D204A mutation into pACT-HAB1^!-2, generating pACT-HAB1^!-3. When tested for mandipropamid induced interactions with pBD-PYR1*^-MANDI, HAB1^!-3 is ˜10-fold less sensitive to mandipropamid relative to HAB1^!-2 (FIG. 5).

B1: HAB1^!-2: HAB1 double mutant V393R, R505A (protein)
chain: MTPAVAMTLSLAANTMCESSPVEITQLKNVTDAADLLSDSENQSFCNGGTECTMEDVSELEEVGEQDLLKTLSDTRSGSSNVFDEDDVLSVVEDNSAVISEGLLVVDAGSELSLSNTAMEIDNGRVLATAIIVGESSIEQVPTAEVLIAGVNQDTNTSEVVIRLPDENSNHLVKGRSVYELDCIPLWGTVSIQGNRSEMEDAFAVSPHFLKLPIKMLMGDHEGMSPSLTHLTGHFFGVYDGHGGHKVADYCRDRLHFALAEEIERIKDELCKRNTGEGRQVQWDKVFTSCFLTVDGEIEGKIGRAVVGSSDKVLEAVASETVGSTAVVALVCSSHIVVSNCGDSRAVLFRGKEAMPLSVDHKPDREDEYARIENAGGKVIQWQGARVFGRLAMSRSIGDRYLKPYVIPEPEVTFMPRSREDECLILASDGLWDVMNNQEVCEIARRRILMWHKKNGAPPLAERGKGIDPACQAAADYLSMLALQKGSKDNISIIVIDLKAQAKFKTRT
modifications: left off: small tags and cut ends
notes: HAB1 double mutant V393R, R505A
phenotype of T1 plants: symptoms of severe ABA insensitivity, including dwarf stature and high sensitivity to water deficit
